Experimental findings from publication PMC4393111 are described below.

Assay [1] has as its target GFP-Dzip1 (full-length mouse Dzip1) (mouse) (UniProt Q8BMD2). The experiment in a line: co-IP; both partners co-expressed with tags in HEK 293T cells (some in G0 phase; some treated with the GSK3 inhibitors BIO or CHIR99021, the CK1 inhibitor D4476 or the CK2 inhibitor CX4945); IP of the GFP-, CFP/YFP-tagged partner; IP buffer 0.1% NP-40, 50 mM HEPES pH 7.00, 125 mM NaCl, 4°C.

The target in a further assay is GFP-Rab8^T22N (UniProt P61006). Described as above.
Assay [2] has as its target CFP-RBD-YFP (Rab8-binding domain of Rabin8 between CFP and YFP) (human).
Assay [3] has the same target. The source holds these as a separate data set.

Chain of UniProt P61006 (P61006 whole entry T22N, the tested form may be a part): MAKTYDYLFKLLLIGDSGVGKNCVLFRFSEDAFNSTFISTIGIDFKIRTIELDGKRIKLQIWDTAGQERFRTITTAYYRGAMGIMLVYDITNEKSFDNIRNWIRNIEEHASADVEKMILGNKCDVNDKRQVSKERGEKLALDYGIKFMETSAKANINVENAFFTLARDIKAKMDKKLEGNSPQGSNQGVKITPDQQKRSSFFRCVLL

In the case of “Flag-Rab8^T22N (from UniProt P61006 1-207) (natural protein)”, the fold co-immunoprecipitated against Rab8^Q67L in assay [1] was found to be 3.5 fold.

Regarding “Myc-Dzip1 (from UniProt Q8BMD2 1-852) (natural protein)”, the fold co-immunoprecipitated against wild-type Rab8 with GFP-Rab8^T22N was 5 fold.

“endogenous Rab8 of NIH 3T3 cells (from UniProt P55258 1-207) (natural protein)” gave an FE^CFP after YFP photo-bleaching (AB-FRET of the reporter CFP-RBD-YFP) around the cilium base, G0-phase NIH 3T3 RNAi control cells in assay [2] of 9.3%. In assay [3], this substance came in with an FE^CFP after YFP photo-bleaching (AB-FRET of the reporter CFP-RBD-YFP) at the basal body, G0-phase NIH 3T3 cells treated with the GSK3 inhibitor BIO of 3.3%; an FE^CFP after YFP photo-bleaching (AB-FRET of the reporter CFP-RBD-YFP) at the basal body, G0-phase NIH 3T3 cells treated with the GSK3 inhibitor CHIR99021 of 2.6%; an FE^CFP after YFP photo-bleaching (AB-FRET of the reporter CFP-RBD-YFP) at the basal body, G0-phase NIH 3T3 cells, untreated control of 4.8%.
